Data published in PMC11539162, “Distinct roles for the domains of the mitochondrial aspartate/glutamate carrier citrin in organellar localization and substrate transport” (Molecular Metabolism, 2024).
Substitutions are numbered along the chain they refer to. Names may count otherwise.

Molecular target: the molecule itself
Assay: SEC; size exclusion chromatography of purified full-length citrin and of the calcium-binding site mutant; column and buffer not told

B1: human citrin (mitochondrial aspartate/glutamate carrier isoform 2), full-length wild type (natural protein, UniProt Q9UJS0-1 1-675, looked up)
chain: MAAAKVALTKRADPAELRTIFLKYASIEKNGEFFMSPNDFVTRYLNIFGESQPNPKTVELLSGVVDQTKDGLISFQEFVAFESVLCAPDALFMVAFQLFDKAGKGEVTFEDVKQVFGQTTIHQHIPFNWDSEFVQLHFGKERKRHLTYAEFTQFLLEIQLEHAKQAFVQRDNARTGRVTAIDFRDIMVTIRPHVLTPFVEECLVAAAGGTTSHQVSFSYFNGFNSLLNNMELIRKIYSTLAGTRKDVEVTKEEFVLAAQKFGQVTPMEVDILFQLADLYEPRGRMTLADIERIAPLEEGTLPFNLAEAQRQKASGDSARPVLLQVAESAYRFGLGSVAGAVGATAVYPIDLVKTRMQNQRSTGSFVGELMYKNSFDCFKKVLRYEGFFGLYRGLLPQLLGVAPEKAIKLTVNDFVRDKFMHKDGSVPLAAEILAGGCAGGSQVIFTNPLEIVKIRLQVAGEITTGPRVSALSVVRDLGFFGIYKGAKACFLRDIPFSAIYFPCYAHVKASFANEDGQVSPGSLLLAGAIAGMPAASLVTPADVIKTRLQVAARAGQTTYSGVIDCFRKILREEGPKALWKGAGARVFRSSPQFGVTLLTYELLQRWFYIDFGGVKPMGSEPVPKSRINLPAPNPDHVGGYKLAVATFAGIENKFGLYLPLFKPSVSTSKAIGGGP
notes: human citrin (AGC2), full length, codon-optimised cDNA; UniProt Q9UJS0, isoform NP_055066.1; The tag is followed by a TEV site (ENLYFQG); the protein was released from the resin by TEV digestion; NP_055066.1 is printed for the mammalian construct; the yeast construct is called a codon-optimised cDNA of human citrin; also called AGC2; wild-type citrin; source: S. cerevisiae W303-1B, mitochondria …
  stoichiometry N: 2

B2: human citrin D66A/T68A/D70A/E77A, full-length calcium-binding site mutant (natural protein, UniProt Q9UJS0-1 1-675, looked up)
chain: B1 chain with D66A, T68A, D70A, E77A
notes: Same construct as m1 apart from the four substitutions; also called quadruple alanine mutant; quadruple mutant; source: S. cerevisiae W303-1B, mitochondria solubilised in LMNG, purified (nickel Sepharose, on-column TEV digestion); not shown: His8, N-terminal, cleaved
  stoichiometry N: 2
